Measurements from paper PMC8257531, “ARL15 modulates magnesium homeostasis through N-glycosylation of CNNMs” (Cellular and Molecular Life Sciences: CMLS, 2021).

B1: CNNM2BAT (domain or fragment, UniProt Q9H8M5 429-584, looked up)
chain: KEELNIIQGALELRTKTVEDVMTPLRDCFMITGEAILDFNTMSEIMESGYTRIPVFEGERSNIVDLLFVKDLAFVDPDDCTPLKTITKFYNHPLHFVFNDTKLDAMLEEFKKGKSHLAIVQRVNNEGEGDPFYEVLGIVTLEDVIEEIIKSEILDE
notes: Bateman module (CBS1 and CBS2) of CNNM2, purified; theoretical mass of the monomer printed as 17.72 kDa; also called Bateman module of CNNM2

Tests used:
CNNM2BAT = target: B1; assay: SEC; Superdex 200 Increase 10/300 GL, 1 mg/mL protein, 0.5 ml/min, 50 mM Hepes pH 8.5, 200 mM NaCl, 1 mM MgCl2, 1 mM TCEP; masses from a calibration line; details: both partners purified
[1] = target: the molecule itself; assay: as above

Binder	stoichiometry N (CNNM2BAT)	stoichiometry N [1]
Pure ARL15 (gel filtration) (natural protein, UniProt Q9NXU5 1-204, looked up, ARL15, purified; theoretical mass of the monomer printed as 19.57 kDa; The printed theoretical mass of 19.57 kDa is below that of whole ARL15, so a shortened construct is likely) MSDLRITEAFLYMDYLCFRALCCKGPPPARPEYDLVCIGLTGSGKTSLLSKLCSESPDNVVSTTGFSIKAVPFQNAILNVKELGGADNIRKYWSRYYQGSQGVIFVLDSASSEDDLEAARNELHSALQHPQLCTLPFLILANHQDKPAARSVQEIKKYFELEPLARGKRWILQPCSLDDMDALKDSFSQLINLLEEKDHEAVRM	1 ARL15 per CNNM2BAT (2:2)	2
B1	–	2
